Results on 22 sequences are retold here after a protein production outcome set (Wang et al. 2014).

This series in a line: label from the status in PepcDB records.
Regarding “MQNNSYGYAVSVRVGGKEHRHWERYDIDSDFLIPADSFDFVIGRLGPEAAIPDLSGESCEVVIDGQIVMTGIIGSQRHGKSKGSRELSLSGRDLAGFLVDCSAPQLNVKGMTVLDAAKKLAAPWPQIKAVVLKAENNPALGKIDIEPGETVWQALTHIANSVGLHPWLEPDGTLVVGGADYSSPPVATLCWSRTDSRCNIERMDIEWDTDNRFSEVTFLAQSHGRSGDSAKHDLKWVYKDPTMTLHRPKTVVVSDADNLAALQKQAKKQLADWRLEGFTLTITVGGHKTRDGVLWQPGLRVHVIDDEHGIDAVFFLMGRRFMLSRMDGTQTELRLKEDGIWTPDAYPKKAEAARKRKGKRKGVSHKGKKGGKKQAETAVFE”, the protein production entry is recorded as “not failed”. For the sequence “MLHTEKVEYVNQAHEDITGIARDKSIGTNLRDLTFFRQHNALAEQTLAKIFRGDQAKGEVQFSRTDGSRYWLKYIVSQFITDRGNHYALVSGEENSDEHNYKAELEHHHHHH”, the protein production result is on record as “not failed”. As to “MKAALWMAGWLALMVIVAVAGRETLRELSVFQVMELRSVIGFAMLYPLIHKFGGLTAMATARPLAHLSRNLVHYAAQLGWFYALTLISIGQVVSIEFTMPIWIAILAATFLGEHMNVWKITAVVLGLIGVVVIVRPATSSIEPGQLIALGAAVGFGISVTLMKSLTRTESTLAIIFWMLLIQSAAGLVPALWLWQWPSAYVWVWIVIIAFCGTFSHYCMARALTYADATIVVPMDFLRVPLSATAGWLIYGERLDAYTVIGAALILIGNLLNLRGAPRPPAAASIRNSP”, the protein production entry is “failed”. To “EEGLEIATLKRIVADMHAAAETAGVHIVTGDTKVVPKGTCDKLYITTAGVGIIPEGRTSADPQIGDAIIVSGPIADHGMAVMMARGDLAISAPIESDTRSVNGQIEALYAAGVTPRWMRDATRGGLATVMNELARATGLGVALNDPLPVRDMTRAACDMLGIDPMYVANEGTFVAIVPADQVDTALATIPEASCIGQIVEQPAASVVLRTGFGGSRMVDMLVGDPLPRIC” belongs “failed”; to “AADPVVVPANMEPLTIEGNRFVTLCIMIRTTPWEVSRDVKLHPRDEVDWHTLEGVRALREAFATNNPNGRLTWGFTMNALEDGRKNYREIRDYVVECQKKYGDEVTYFPGYFPAMYLPRERVNREMSEAIEIISKMVGNGYRPQSIMGGFLSADNLRYLAEKENIHVAHAVIWSQHNIDGGGADGSPSYPFYPSTEHFCKPAQGKSDFIDCVNLDGWTMDFICARRSGQTGHGIDGYNSRRGVGPIETYKGWGLDLGHREVMHTEAIHFDKGLELNGFGWVANIWEAQMVHEFGKDLICDAMKMWVTGTKERWPDTHFVTFGEFGELWRKQYKSNDDWNYRFVERGSGLGDSYNNLEIKWFMNKEFRLALLRDWHTKNSPAYVIDFTRYDLQAHEPADPSPEKPAKDWSLINKINQKALRPQDKPVLIDKLEKEDQDLIRKYYPELLK”, “not failed”. For “MITIDALGQVCPIPVIRAKKALAELGEAGGVVTVLVDNDISRQNLQKMAEGMGYQAEYLEKDNGVIEVTIVAGEGCAVETSGTAADSGLVVAIGRNTMGEGSEELGRILLKGFIYSLRELTPPPARLLFFNSGAHLTSKDSNSIEDLKAMAAQGTIIQTCGTCLNYYGITEQLAVGQVANMYDIVTAMTEAKRLINI”, the protein production entry is given as “failed”. “MSPQSMLTSPQHPRRTTMVISHGTLSASAEHAAHLRQLLVHIAQATRQEDGCLLYLVSEDLSQPGHFLITEHWDNLGAMHTHLALPGVTQAIDALKHLNVTDLKITAYEAGEAINIMG”: the protein production entry is reported as “not failed”.

Regarding “MLASVRVNQLQRLLLSARRLSSSPIIPPSRLLHQRLFSTSDTDASAASFSSSHPKIQTLEGKASNKSRSTSSTTSLNEDELAKFSAIADTWWHSEGPFKPLHQMNPTRLAFIRSTLCRHFSKDPSSAKPFEGLKFIDIGCGGGLLSEPLARMGATVTGVDAVDKNVKIARLHADMDPVTSTIEYLCTTAEKLADEGRKFDAVLSLEVIEHVANPAEFCKSLSALTIPNGATVLSTINRTMRAYASTIVGAEYILRWLPKGTHQWSSFVTPEEMSMILQRASVDVKEIAGFVYNPITGRWLLSDDISVNYIAYGTKRKDLGDI”, the protein production entry is recorded as “failed”. Turning to “MGDGAVKQGFLYLQQQQTFGKKWRRFGASLYGGSDCALARLELQEGPEKPRRCEAARKVIRLSDCLRVAEAGGEASSPRDTSAFFLETKERLYLLAAPAAERGDWVQAICLLAF”, the protein production result was “not failed”. On to “MAESQALSDDIGFLLSRVGGMVLGAVNKALVPTGLRVRSYSVLVLACEQAEGVNQRGVAATMGLDPSQIVGLVDELEERGLVVRTLDPSDRRNKLIAATEEGRRLRDDAKARVDAAHGRYFEGIPDTVVNQMRDTLQSIAFPTFVE”, for which the protein production entry is listed as “not failed”. To “HLDASLQEVAEHAFGDYLGGLVALDPNTGGVLALVSKPGFDPNLFVDGIDPETWKSLNESPERPMVNRALRGIYPPGSTIKPLMALAGLELGLREPDDSIDDPGFFRLPNSQHRFRDWKPGGHGIVDLRRSISQSCDIYYYRLAVDMGIDRMHDYLTQFGLGQKTGIDLQGESSGLLPSRAWKQRRWKQPWYPGETVIAGIGQGYHLTTPLQLATMTAMLANGGKRIQPRLVDAVRDPHTRAWQTQAPVMLGEVAIDPENLAVVRQGMMDVTRPGGTAAASAAGAAYGIAGKTGTAQVVGIKQGARYDATRLAREHRDHALFVAYAPAENPVIAVAVMVENGGSGSGTAAPIARAVFDYYLTGKRPGTMKLETDDAAD” belongs “failed”; to “MTSKRKRWTAQAAKLPSPMGGLALAIASLGWTWESVMPSLNGWGQLTGAMIASALLLMLTGKFLLHPTVLKNELSHPVIGSVIPTFAMALMVVSNLLGHYFPHAGLALWLGAIAIHVVFLGAFIYYRAIDFKLEHMVPSWFVPPIGIIVAAVSFPSNGEPWLVNTILAFGMLAYLIMLPLMLYRLIFCQAIPDAAKPTIAILAAPASLSLAGYLTVCEQPSIAVVAILVSIAILMTSVIYLAFFHLLKLPFSPGYAAFTFPMVIGATALFKTAHWLEQFSQMAELTEWVRLLADFELGVATIVVAYVALRYLTHYVPNPVENIGSTTSVQLK”, “failed”. For the sequence “MAKYETPPPVRPLEKLITDFSYTNGLDPVNVFNDFLTYIIHGFSPGAPPLQNWKYKRLQNMKFMEMLTGWVQLMASRIKDDTSWYDPFGDLYMALVSKSAQQSQGQFFTPVHICDLMVLCTQTEEKMTGQRMGDPTCGSGRLLLAYHARNPENYLIGEDINRTCCLMTVCNMLIHGCVGEVICHDSLNPGNFVDGWKVNPMLTWTGIPTIKRMNMKEYRAGRNLPASPYIIRKTMLAGSRKHKTDSLLPLQAVFKMLEHHHHHH”, the protein production result is given as “not failed”. As for “MCDRTSKNENRILTISALLASGFAAGGMVLGLLVGSIVIVFDGVYSLVSLLLTLLSLAASSYISKPSKSVFPFGKAVLEPIVIAIKAAVILVVVCFSLYSAISALMTGGREVDTSIATIFGLVNVIGCGYAWWFMAKKSRRFSSGLIDAEKKQWQMDTLLSVAVTVGFIAAWLVSLTPFAHYAVYADPMMMLLMGFYFLKVPFDMLCGALRELLMMTPSKELCQVVGNDVLEIEKVSDHQLKLAGITKVGQELRVNIDLHVDDDMIELDTLEQTRKQLTTRLSKHRFKLQLNLNVANC”, the protein production result was “failed”. To “MFRVFILFGFGFYLMQLHISGDISKYINMKYAYLSFSAMIAAFLLAIIQLIMVFRDEDIGAKTEHMGHTHDGENTILKKIMVYGLLSYALIAGFLFPVATLDSTIVSAKGFHFPKNNAAGDDPYAQNQFLRPDTSGYFGETDYEKMMAKEKAEIIDQNPIKVNDSNYLMTMEILYNYPGEFTGKQIEFTGFVYNDEVTKDNNLFLFRFGIIHCVADSGVFGMLVQMPEKTNLKNDTWLTVKGTITQEYYSPFKMNIPSVQVESYKEVAKPKSVYVYRKY” belongs “failed”; to “MGVLHALREEEGAARARFEEALTHDAGHYRARMNIGNLDLEAGRLPEAEAAYREVLKLAPEYDGAHHNLGVALRRQGKLYESVGSIRKAQRLGVSGARAAAKEDMQEQLRLNPHLRWIRAAIFIGVLLLLGVLLWLNRGRA”, “failed”. In the case of “SGSEPTKVMVAVNASTIKDYPNPSISCKRAFEWTLEKIVRSNTSDFKILLLHVQVVDEDGFDDVDSIYASPEDFRDMRQSNKAKGLHLLEFFVNKCHEIGVGCEAWIKTGDPKDVICQEVKRVRPDFLVVGSRGLGRFQKVFVGTVSAFCVKHAECPVMTIKRNADETPSDPADD”, the protein production result is “not failed”.

As to “MKGTNTIYIIISSILLAYIMQIFVLYPFTAVAIGIPLGLLSRKYSAIGGFLIGFLSSLSLYLIYPINAVSKIAEIIGQLIGINPFLVVLLYPLIYGTISLISALLFYYIVRLNK”, the protein production entry is on record as “failed”.

As to “MLSIIEQIKQGQLWDFHGGIHPEENKTISNQAAIQQAGIPSQLVLPLKQHIGGKGDILVSVGDVVLKGQPLTQGNIAMCVPVHAPTSGRITAIEPRTVAHPSGLTDLCIVIESDGEDRWVEDRTPIDDFSSVDPIDLIERIRQSGISGMGGAGFPTSRKIQSGIGKAEMLIINAAECEPYITADDRLMREHAEEIIDGIKILQHILTPKVCIIAIEDNKPEAVKALNQAVTDHDNIIIRVIPTKYPSGGSRQLTKIITGQEVPANGRSTDIGVIVQNVGTVFAIKRAICDAEPLIERIVTLTGNSMSTPGNLWVRLGTCIDYLMELVGYKADKKHPRIIMGGSLMGFTLPHQQVPITKITNCIITPDKKELPLYNHEMACIRCSSCADACPTSLLPQQLYWYSKSEDYDKCNEYNLNDCIECGACAYVCPSEIPLVQYYRQAKSEIYSRKQDALAAERAKLRFEEKNARLERDKLERENKFKQAAENRRKEMKTENKGGDDAIAAAIARVKAQKAAQESGVAAPKPAVAAAIARAKAKQAEAAKSETSVPDNSEMAKLREERKQQARERKAKLAEETTATDSDKSEKKDAVAAAIARAKARKAAQAEEKTETPVASEEKNQNTEGSADPKKAAVAAAIARAKARKAAQAEEKTETPVTSEEKNQNTEGSADPKKAAVAAAIARAKARKAAQAEEKTETPVASEEKNQNTEGSADPKKAAVAAAIARAKARKAAQAEEKTETPVTSEEKNQNTEGSADPKKAAVAAAIARAKARKATQAEEKTETPVTSEEKNQNTEESADPKKAAVAAAIARAKARKAAQENNKKEE”, the protein production result was “failed”. With “MIEESVMLRQHNLRLRKYDYVLGRLFVALPIGGLVVAVLLLFADWRVGRFELAMCLAMYLFTMMGIEVGFHRCFAHRAFKAGTGLQWVLAVAGSMGGHGPLIWWVTTHRRHHRFVDTDQDPHTPNKDLRGPWRNFKSFLYGYVGWTMDTDVKLQEGWQRYGVDLYKNSILFKVHARFALIALLGLLLPTVAGALFHRTAEGALLGLLWGGLVPICLTQHLFWMINAFGHRIGAKPFSGRIVGDSRNCWWLALPTFGQGWHNNHHADPGCATTRKTWWQLDPGAWLIRLFERLGWASAVKWK” the entry was “failed”; with “MVQHLTAEEIIQYISDAKKSTPIKVYLNGNFEGITYPESFKVFGSEQSKVIFCEADDWKPFYEAYGSQFEDIEIEMDRRNSAIPLKDLTNTNARIEPGAFIREQAIIEDGAVVMMGATINIGAVVGEGTMIDMNATLGGRATTGKNVHVGAGAVLAGVIEPPSASPVIIEDDVLIGANAVILEGVRVGKGAIVAAGAIVTQDVPAGAVVAGTPAKVIKQASEVQDTKKEIVAALRKLND”, “not failed”; with “MEEMNVFLTMIYRELKRFIRSPSRIIGSILNPLLWLIFFGKGWSGVFNFPMATRIFGGVDYMTYLVPGVVVMTVFDMSFLQGLTIIWDKQFGFMKEILVAPASRVESILGRITGGAIVAMIQGFIMVALSFIVANLKVSGVIPTLILAFFVGVAIAGLGVAVALKMSSMEGFQIIVMMLMLPMMFLSGAFYPVRTMPNWMQWLAKINPLTYAVDGARYYLAGVTPTFGIMQDWIVLILLALVFAGFAGLEFRKAYLS”, “failed”.
